# “And” between values parts separate entries of the source, which are not always exact repeats. Equal entries are not always repeated. Where two headings read alike, the source gives them in different places.
# T1: MF-IV (MF5.1): E. coli maltose binding protein fused to RSV F protein residues 142-302 (E. coli; respiratory syncytial virus (strain A2)), P03420
# T1 chain: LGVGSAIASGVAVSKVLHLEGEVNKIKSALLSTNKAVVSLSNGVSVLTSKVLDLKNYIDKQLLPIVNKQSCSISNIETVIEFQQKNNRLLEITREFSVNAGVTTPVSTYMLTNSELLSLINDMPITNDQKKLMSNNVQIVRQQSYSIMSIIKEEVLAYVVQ
# Experiments:
# [1] = molecular target: T1, MF-IV (MF5.1): E. coli maltose binding …
# [2] = molecular target: T1, MF-IV (MF5.1): E. coli maltose binding …; test: competitive binding assay (B50) on the MF5.1 fusion protein; reference T112
# [3] = molecular target: T1584 (respiratory syncytial virus (strain A2)); test: sedimentation equilibrium, 35 µM peptide, single ideal species fit (self-association); monomer 5506
# [4] = molecular target: T1584 (respiratory syncytial virus (strain A2)); test: sedimentation equilibrium, 35 µM peptide (self-association)
# [5] = molecular target: T1582 (respiratory syncytial virus (strain A2)); test: sedimentation equilibrium, 35 µM peptide, single ideal species fit (self-association); monomer 4897
# [6] = molecular target: T1582 (respiratory syncytial virus (strain A2)); test: sedimentation equilibrium, 35 µM peptide (self-association)
# [7] = molecular target: T1581 (respiratory syncytial virus (strain A2)); test: sedimentation equilibrium, 35 µM peptide, single ideal species fit (self-association); monomer 5007
# [8] = molecular target: T1581 (respiratory syncytial virus (strain A2)); test: sedimentation equilibrium, 35 µM peptide (self-association)
# [9] = molecular target: T1772 (respiratory syncytial virus (strain A2)); test: sedimentation equilibrium, value at 25 µM, single ideal species fit (self-association); monomer 5393
# [10] = molecular target: T1772 (respiratory syncytial virus (strain A2)); test: sedimentation equilibrium (self-association)
# [11] = molecular target: T1772 (respiratory syncytial virus (strain A2))
# [12] = molecular target: T1623 (respiratory syncytial virus (strain A2)); test: sedimentation equilibrium, 35 µM peptide, single ideal species fit (self-association); monomer 5750
# [13] = molecular target: T1623 (respiratory syncytial virus (strain A2)); test: sedimentation equilibrium, 35 µM peptide (self-association)
# [14] = molecular target: T112 (respiratory syncytial virus (strain A2))
# [15] = molecular target: T1772 (respiratory syncytial virus (strain A2)); remark: listed apart in the source
# [16] = molecular target: T1772 (respiratory syncytial virus (strain A2)); remark: listed apart in the source
# [17] = molecular target: T1772 (respiratory syncytial virus (strain A2)); remark: listed apart in the source
# [18] = molecular target: T1772 (respiratory syncytial virus (strain A2)); remark: listed apart in the source
binder,measurement,setting,value
DEFDASISQVNEKINQSLAFIRKSDELL (modifications not checked) [T67],binding affinity,[1],5 nM
same,fold lower binding affinity than T112,[2],5 fold
T1584 (modifications not checked) peptide: AVSKVLHLEGEVNKIKSALLSTNKAVVSLSNGVSVLTSKVLDLKNYIDKQL,weight-averaged molecular weight,[3],11700 g/mol
same,N-mer (weight-averaged molecular weight / monomer molecular weight),[4],2.1
VLHLEGEVNKIKSALLSTNKAVVSLSNGVSVLTSKVLDLKNYIDK (modifications not checked) [T1582],weight-averaged molecular weight,[5],7520 g/mol
same,N-mer (weight-averaged molecular weight / monomer molecular weight),[6],1.5
VLHLEGEVNKIKSALLSTNKAVVSLSNGVSVLTSKVLDLKNYIDKQ (modifications not checked) [T1581],weight-averaged molecular weight,[7],9120 g/mol
same,N-mer (weight-averaged molecular weight / monomer molecular weight),[8],1.8
AVSKVLHLEGEVNKIKSALLSTNKAVVSLSNGVSVLTSKVLDLKNYIDKQ (modifications not checked) [T1772],weight-averaged molecular weight,[9],12900 g/mol
same,N-mer (weight-averaged molecular weight / monomer molecular weight),[10],2.4
same,weight-averaged molecular weight,[11],12900 Da
T1623 (modifications not checked) peptide: SGVAVSKVLHLEGEVNKIKSALLSTNKAVVSLSNGVSVLTSKVLDLKNYIDKQL,weight-averaged molecular weight,[12],12900 g/mol
same,N-mer (weight-averaged molecular weight / monomer molecular weight),[13],2.2
VFPSDEFDASISQVNEKINQSLAFIRKSDELLHNV (modifications not checked) [T112],weight-averaged molecular weight,[14],3980 Da
same,helicity of the peptide mixture,[15],86%
same,weight-averaged molecular weight of the mixture,[16],21100 Da
same,melting temperature (Tm) of the peptide mixture,[17],87 ° C.
same,weight-averaged molecular weight of the mixture,[18],15300 Da and 22000 Da and 17300 Da
